# Results: publication PMC11533501
# Tests used:
# [1] = biological target: dynamic microtubules grown from coverslip-anchored biotinylated GMPcPP seeds (bovine brain tubulin) (bovine) (UniProt Q6B856); assay: laser trap bidirectional sliding friction assay; beads decorated sparsely with native kinetochore particles on the sides of coverslip-anchored dynamic microtubules; constant force 0.5-3 pN along the axis, direction reversed periodically; speeds at 1 ± 0.5 pN
# [2] = biological target: dynamic microtubules grown from coverslip-anchored biotinylated GMPcPP seeds (bovine brain tubulin) (bovine) (UniProt Q6B856); assay: laser trap rupture force assay; kinetochore particles sparsely on anti-His polystyrene beads, attached near the tips of dynamic microtubules grown from coverslip-anchored seeds; preload about 1 pN, then force ramp 0.25 pN/s until detachment; growth buffer (BRB80, 1 mM GTP, tubulin)
# [3] = biological target: dynamic microtubules grown from coverslip-anchored biotinylated GMPcPP seeds (bovine brain tubulin) (bovine) (UniProt Q6B856); assay: laser trap bidirectional sliding friction assay; anti-His beads densely coated with recombinant Ndc80c (about 3,000 complexes a bead, not single-molecule conditions) on the sides of coverslip-anchored dynamic microtubules; constant force along the axis, direction reversed; speeds at 1 ± 0.5 pN
mean sliding speed of side-attached beads under 1 pN toward the minus end [1],mean sliding speed of side-attached beads under 1 pN toward the plus end [1],mean rupture strength at microtubule minus ends [2],mean rupture strength at microtubule plus ends [2],mean sliding speed of side-attached beads under 1 pN toward the minus end [3],mean sliding speed of side-attached beads under 1 pN toward the plus end [3],Substance
674 nm·s^-1,109 nm·s^-1,3.3 pN,9.7 pN,–,–,native kinetochore particles isolated from yeast (Dsn1-6His-3Flag) (from UniProt P40568 1-576) (complex)
–,–,–,–,464 nm·s^-1,130 nm·s^-1,recombinant human Ndc80 complex (from UniProt O14777 1-642; Q9BZD4 1-464; Q8NBT2 1-197; Q9HBM1 1-224)
